Assay results as given in the supplement of paper PMC12764529.
± gives the half width of the 95% confidence interval.

Assays:
[1] = folding stability dG unfold (combined trypsin and chymotrypsin); higher = more stable
Procedure, shortened: (§1)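 Designed mini-proteins with no cysteine and under 80 residues were kept only if AlphaFold2 dimer inter-PAE was above 15. In a PA-tagged cDNA display construct, they were digested with trypsin and chymotrypsin and then sequenced. K50 was inferred by Bayesian fitting of counts, and unfolding free energy was derived per protease or combined against a sequence-predicted unfolded-state K50 and a shared folded-state K50.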

[2] = folding stability dG unfold from chymotrypsin proteolysis; higher = more stable
Procedure, shortened: as §1

[3] = folding stability dG unfold from trypsin proteolysis; higher = more stable
Procedure, shortened: as §1

Sequence	folding stability dG unfold [1]	folding stability dG unfold [2]	folding stability dG unfold [3]
SMTLPANAKAKVTVLVLFYDPETGEATLVKVDYTATFKPDDKGNLVVEVEPSKIEFIGPISLEEAKKIAGSA [r9_423_TrMRF]	2.55 ± 0.21 kcal/mol	2.11 ± 0.058 kcal/mol	2.57 ± 0.15 kcal/mol
SMTLTIDLDPSVPYLVRIHFVNEDGEPYEADALTTRTPDGTAFVDIALPDDSIPPGADIKILSVEVIPLDSA [r9_359_TrMRF]	1.96 ± 0.051 kcal/mol	2.1 ± 0.054 kcal/mol	1.63 ± 0.019 kcal/mol
SMTPEEARALAEAIAAERAAAGYATEMELTVTPVNGVPVATFRFRFTDAAGRATEFTVTVAPDGTVTFTPSA [r9_1027_JUSTAS]	3.64 ± 0.08 kcal/mol	3.814 ± 0.031 kcal/mol	3.34 ± 0.089 kcal/mol
SMTTRESTIDASIPGYTVSKVSVTTLPGGERKITITLPSGKVLVLSTPADPALVPLTVTSEFSPEEVAAKSA [r9_1075_JUSTAS]	0.395 ± 0.051 kcal/mol	0.0702 ± 0.097 kcal/mol	0.634 ± 0.057 kcal/mol
SMTVSNPRGKTVTVTVTVTVDPNKKSVTVPVTIRTAGEELTFTFTVPKGVNKPVTFSLTVPLPPGSSVISSA [r9_973_JUSTAS]	3.63 ± 0.089 kcal/mol	4.02 ± 0.059 kcal/mol	3 ± 0.093 kcal/mol
SMTVVIDIPPEVPVPGSGSVRPVPVEEVLKRVEEAMAKGKKVVVTGRDPKHPLVQEVAARLEELGVEVVGSA [r9_468_JUSTAS]	0.59 ± 0.054 kcal/mol	0.71 ± 0.016 kcal/mol	0.342 ± 0.029 kcal/mol
SMVEKLPDGTTVIKGELPLDVSIEDVLAKLPDLKLASRTSETDPATGKRYYTFIVKPDGTVDVTSEPKLLSA [r9_238_JUSTAS]	0.957 ± 0.045 kcal/mol	1.21 ± 0.091 kcal/mol	0.645 ± 0.027 kcal/mol
SMVFTLPGGIEIKVEPEEDSYRFVIELPSGERLEVPVPPENLEEFIRELIRKALEIANPNITEEEIEKLASA [r9_634_TrMRF]	3.59 ± 0.29 kcal/mol	4.02 ± 0.09 kcal/mol	3.22 ± 0.26 kcal/mol
SMVIEPKPDGTVTVTLPSSLPDLPREEVEAIVREALPPGASLGDSITVSRDPETGEVTVTAPVKFPPELASA [r9_1011_JUSTAS]	1.03 ± 0.084 kcal/mol	0.544 ± 0.025 kcal/mol	1.55 ± 0.076 kcal/mol
SMVIPPGSRAEFRLEDVPVRLEVEEGSGKVHFRVFSPENPDEEVFEAEFDINDLKPLDLPPELREAFEKESA [r9_1051_TrMRF]	0.955 ± 0.18 kcal/mol	1.18 ± 0.32 kcal/mol	0.652 ± 0.057 kcal/mol
SMVITLPVEDEEKLKELLDELKEQLEKAEEEGLETVTITITLEDGETLEITIDKNMTVEELLEQLEKALESA [r9_127_TrROS_Hall]	2.61 ± 0.29 kcal/mol	1.57 ± 0.12 kcal/mol	3.22 ± 0.33 kcal/mol
SMVKIYFPNAPPELVAEAIEKHPDSTVEIYFEPGKPDVFESILKDYDVEVEPFPTEDGRLLVKARVKVPGSA [r9_1138_TrMRF]	1.74 ± 0.29 kcal/mol	1.32 ± 0.12 kcal/mol	2.11 ± 0.13 kcal/mol
SMVVIEVEPNPETNSLTAKVYLPKDGKKVVEIERSPDGTVKVTVYYKDGSKEEFTFPEDIPIEEAIKKAISA [r9_346_TrMRF]	1.15 ± 0.095 kcal/mol	1.1 ± 0.13 kcal/mol	1.16 ± 0.037 kcal/mol
SMVVPVLIEKPYTSPEELEEFKKEAEELVKKLAEETGYPIKVLETKYTTDPNTNVVSLTLVVEIVSPELNSA [r9_105_JUSTAS]	2.45 ± 0.17 kcal/mol	2.6 ± 0.14 kcal/mol	1.97 ± 0.1 kcal/mol
SMVYVFEVPEGDPEKAEELIRAKLEEEFGYKVESVATPGGGGARVVLVVDPVEDKAYAEVIPFAPDGSPASA [r9_173_TrMRF]	0.618 ± 0.16 kcal/mol	1.15 ± 0.2 kcal/mol	-0.529 ± 0.21 kcal/mol
SMYTTVTVEVDITLADKTPDGTWTPVGTFPIKVTVTVPESRPEEAREEALARARAEVEAFAASRGLTVVVSA [r9_356_JUSTAS]	2.07 ± 0.079 kcal/mol	2.21 ± 0.043 kcal/mol	1.76 ± 0.043 kcal/mol
SMYYLVTITVTIRKDGKPVSVTPIYLAVPPEKAEEVAAEIKKSHPDLEVTITMEVTEVSEDDEEVKELLKSA [r9_782_JUSTAS]	2.79 ± 0.19 kcal/mol	3.36 ± 0.085 kcal/mol	1.92 ± 0.13 kcal/mol
SNEPPVIEIKFRIDEVQPMNGQPMIMFEITEIEDAPPEIQDLLKNGYYIMIHMPPGEPLKEGEEFEIHIFSA [r9_557_TrROS]	2.01 ± 0.3 kcal/mol	2.75 ± 0.12 kcal/mol	1.34 ± 0.09 kcal/mol

Sequence	folding stability dG unfold [1]	folding stability dG unfold [2]	folding stability dG unfold [3]
SNKIDKRIVSVTFYESLPNGSVKVNNLVFISTSDGKVRLVNAGEITIPLGDKTLSINIGEASSNVKLGKISA [r9_1113_TrMRF]	1.37 ± 0.041 kcal/mol	1.52 ± 0.032 kcal/mol	1.01 ± 0.034 kcal/mol
SNKKWRTIELDFWFRTPEQAREWANNLARRLPPDNIDSISVEVEPFPVRKNGEPVGPVYRFKLTIMVRPESA [r9_605_TrROS]	2.6 ± 0.091 kcal/mol	2.82 ± 0.032 kcal/mol	2.33 ± 0.062 kcal/mol
SNLMIHFENPDNGVRVMIQINPEHGRIKLSVMYPNGKPVAEQTIEVDPNKIRLRFKVGGRKFEIEIEIPESA [r9_385_TrROS]	5.62 ± 0.54 kcal/mol	5.6 ± 0.29 kcal/mol	4.32 ± 0.19 kcal/mol
SNNKRITIEIPFPMPAEQARNFMEAFGIKKIEYEKHDDPGYYRVKYTVPDDNVTIDIHIFPPPVPPGQKPSA [r9_1090_TrROS]	1.67 ± 0.13 kcal/mol	1.83 ± 0.15 kcal/mol	1.23 ± 0.024 kcal/mol
SNPNEPLTAEEIAKHIEEFMQEEHGIDKIKPEEFTVNPPDGYIKVEMEIEHKNPPGQKHKIDIWIPPDDLSA [r9_1002_TrROS]	< -1 kcal/mol	0.0346 ± 0.14 kcal/mol	0.0662 ± 0.22 kcal/mol
SNWITLKHTIKHPGREIKIEITAQPNPGGPYWIQVNIEVRDPNGEKEEVEITVPFRGMSIEDFLKNAADASA [r9_217_TrROS]	3.78 ± 0.29 kcal/mol	4.46 ± 0.062 kcal/mol	2.85 ± 0.12 kcal/mol
SPAGELVSSTFPVTVTVTVWRRLPDGTWTPVGTETFTVTVTVAGIPEEVAEALRKAAETPPPPPNLAGLLSA [r9_1192_TrMRF]	1.93 ± 0.054 kcal/mol	1.82 ± 0.049 kcal/mol	1.98 ± 0.028 kcal/mol
SPEIKIEVFKNEDGEEIFIKIEVPPGWRIRIIYNGKEIEEIEVDGYRIRFEEVDGKLRIEVEPLPPGEKPSA [r9_221_TrROS_Hall]	5.2 ± 0.27 kcal/mol	5.48 ± 0.15 kcal/mol	3.87 ± 0.081 kcal/mol
SPIVKVRLRIELPDGKVLELELDVPLPLIKEALSKLIGEKYKVKIVKIDPIDPEKLKPGSTIEITLKAEPSA [r9_803_TrMRF]	4.59 ± 0.2 kcal/mol	4.76 ± 0.14 kcal/mol	3.72 ± 0.28 kcal/mol
SPKGIYIFMIQVKWKNPNGNEWTFPIMVPMDEMPEEELRDFIREFFPGFDDVDIEPQVMRIPPSPEAREKSA [r9_841_TrROS]	2.57 ± 0.28 kcal/mol	2.75 ± 0.17 kcal/mol	2.3 ± 0.16 kcal/mol
SPLELPSDEEITVNAEVLILPYNPETGEIEDEIPIPLPVKIKVKKDGSVEIEIDIPDSIPENVPIVLLLKSA [r9_90_TrMRF]	1.52 ± 0.19 kcal/mol	1.81 ± 0.14 kcal/mol	1.29 ± 0.062 kcal/mol
SPLKEGDTLTFTLPVPDLPNVRIEIDLHFYKDPNTDRYRVLANITVYYGDKPVTFSIEMPVDTFLDLLKSSA [r9_71_TrMRF]	2.87 ± 0.18 kcal/mol	2.34 ± 0.12 kcal/mol	2.99 ± 0.24 kcal/mol
SPLKPNDIRPIKFTSPIRNPDNGRPFRIKVEIWVMPEDPMVIIKDEIEPPNGRTREHTFWIPPGQKIEIPSA [r9_88_TrROS]	0.295 ± 0.3 kcal/mol	0.358 ± 0.33 kcal/mol	0.261 ± 0.13 kcal/mol
SPNFRISPEIKNAIKRALKENEPGKKVEIRMRYPDGPTIMISIDKPGSINIEVEPDPGKPIMEFEFDIKDSA [r9_132_TrROS]	0.873 ± 0.16 kcal/mol	0.825 ± 0.069 kcal/mol	0.732 ± 0.079 kcal/mol
SPPFKIKEIKIEIFPNGTVKIEYRFPSSGHYVKFSIPVDPKKGRIPINMEIYNPDNGKVWEFSATIRIKKSA [r9_825_TrROS]	4.69 ± 0.2 kcal/mol	4.86 ± 0.077 kcal/mol	3.34 ± 0.17 kcal/mol
SPPVSTTTPVPDPENGVVVATVTLTTDPTTGEKTLILKSPEGKTKTVTLSPDETFPVEGLPKGLTATSSVSA [r9_1150_JUSTAS]	0.0862 ± 0.14 kcal/mol	0.437 ± 0.082 kcal/mol	-0.942 ± 0.47 kcal/mol
SPRTTVSFEVYMPPDQLKQNSIEDIADRVRDHFPGYKIKGIDIKFEPYPDPENGRPWVRVTVMIRVEPPESA [r9_1189_TrROS]	2.96 ± 0.14 kcal/mol	3.28 ± 0.098 kcal/mol	2.34 ± 0.085 kcal/mol
SPSRPTLVTTYTFDPSGVPTATTKEITPEEVEELEKKGWKKLSEDPEKGLITLEKKLPTSPQKIEVTILPSA [r9_5_JUSTAS]	0.0748 ± 0.29 kcal/mol	0.0733 ± 0.27 kcal/mol	-0.402 ± 0.2 kcal/mol
